B1: P-1153 (antibody, V domains shown)
VH: QVQLVQSGVEVKKPGASVKVSCKASGYTFTNYYMYWVRQAPGQGLEWMGGINPSNGGTNYAQKFQGRVTLTTDSSTTTAYMELKSLQFDDTAVYYCARRDYRFDMGFDYWGQGTTVTVSS
VL: EIVLTQSPATLSLSPGERATLSCRASQGVSTSGYSYLAWYQQKPGQAPRLLIYLASYRASGVPARFSGSGSGTDFTLTISSLEPEDFAVYYCQHSRDLPLTFGGGTKVEIKR
B2: P-1151 (antibody, V domains shown)
VH: QVQLVQSGVEVKKPGASVKVSCKASGYTFTNYYMYWVRQAPGQGLEWMGGINPSNGGTNYAQKFQGRVTLTTDSSTTTAYMELKSLQFDDTAVYYCARRDYRFDMGFDYWGQGTTVTVSS
VL: EIVLTQSPATLSLSPGERATLSCRASQGVSTSGYSYLHWYQQKPGQAPRLLIYLASYRASGVPARFSGSGSGTDFTLTISSLEPEDFAVYYCQHSRDLPLTFGGGTKVEIKR
B3: P-1150 (antibody, V domains shown)
VH: QVQLVQSGVEVKKPGASVKVSCKASGYTFTNYYMYWVRQAPGQGLEWMGGINPSNGGTNFAQKFQGRVTLTTDSSTTTAYMELKSLQFDDTAVYYCARRDYRFDMGFDYWGQGTTVTVSS
VL: EIVLTQSPATLSLSPGERATLSCRASQGVSTSGYSYLAWYQQKPGQAPRLLIYLASYRASGVPARFSGSGSGTDFTLTISSLEPEDFAVYYCQHSRDLPLTFGGGTKVEIKR
B4: P-1148 (antibody, V domains shown)
VH: QVQLVQSGVEVKKPGASVKVSCKASGYTFTNYYMYWVRQAPGQGLEWMGGINPSNGGTNFAQKFQGRVTLTTDSSTTTAYMELKSLQFDDTAVYYCARRDYRFDMGFDYWGQGTTVTVSS
VL: EIVLTQSPATLSLSPGERATLSCRASQGVSTSGYSYLHWYQQKPGQAPRLLIYLASYRASGVPARFSGSGSGTDFTLTISSLEPEDFAVYYCQHSRDLPLTFGGGTKVEIKR

For the assay, the target named is human PD1-6His (human). Put plainly: ELISA. In general terms: ELISA stands for enzyme-linked immunosorbent assay.
Sequence of human PD1-6His (human) (chain, as listed by the source): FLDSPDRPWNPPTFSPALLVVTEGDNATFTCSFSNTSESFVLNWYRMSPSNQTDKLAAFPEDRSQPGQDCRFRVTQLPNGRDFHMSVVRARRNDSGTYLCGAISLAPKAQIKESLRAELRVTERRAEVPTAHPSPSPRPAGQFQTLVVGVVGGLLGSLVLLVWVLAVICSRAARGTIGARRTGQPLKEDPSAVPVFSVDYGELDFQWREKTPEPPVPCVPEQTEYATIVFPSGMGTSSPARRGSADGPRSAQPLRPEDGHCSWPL
For B1, the EC50 was found to be 0.11 nM. Take B2: the concentration giving a half-maximal response (EC50) was 0.065 nM. To B3 belongs 0.088 nM; to B4, 0.093 nM.

The term EC50 denotes the concentration needed to bring the measured effect to its halfway point. A lower EC50 goes with a more potent agent.

(Values after patent publication US20260347474 (published 2026).)
